# Data reported in the nanobody polyreactivity screen of Harvey et al. (2022).
# Test: yeast display, Sf9 membrane polyspecificity reagent, FACS + sequencing; frameworks hold sequencing errors
# Summary of the method: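 Genes from sorted yeast were amplified by colony PCR, read by MiSeq 2 × 250 sequencing and filtered on CDR length. These cells carried a synthetic nanobody library in Saccharomyces cerevisiae BJ5465 and were sorted by FACS into low and high (top ~1%) gates on anti-HA and streptavidin fluorescence. Polyreactivity is labelled according to the gate of origin.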
row,Sequence,polyreactivity (PSR sort gate)
1,KVQLVESGGALVQAGGSLRLSCAPSGSIFWNNAMGWYRQAPGKERELVAGISSAGSTNYADSVKGRFTISRDNAKNTVYLQLKSQKPEDTAVYYCAASYFSEYVWLRSYVRYYYWVQGTQVTVSS,low polyreactivity
2,QVQLVESGGGLVQAGGSLRLSCAASGSIFSGYAMGWYRQAPGKERELVAAITWRAASTYYADSVKGRFTISRDNAKNTVYLQMNSLKPEDTAVYYCAKEGWPKPAFYYWGQGTQVTVSS,low polyreactivity
3,QVQLVESGGGLVQAGGSLRLSCAASGSIFAWYGMGWYRQAPGKERELVAAISTAGSTNYADSVKGRFTISRDNAKNTVYLQMNSLKQEDSAVYYCAKKSSWYYPERFDYWGQGTQVNVSS,low polyreactivity
4,QVQLVESGGGLVQAGGSLRLSCAASGLIIRYYDMGWYRQAPGKEREFVAAITWNGGSTYADSVKGRFTISRDNAKNTVYLQMNSLKPEDTAVYYCAADLSYWDDFDYWGHGTQVTVSS,low polyreactivity
5,QVQLVESGGGLVQAGGSLRLSCAASGRIFGRYAMGWYRQAPGKERELVAGISARGGSTYYADSVKGRFTISRDNAKNTVYLQMNSLKPADTAVYYCAAAGYRGGGYWGQRTQVTVSS,high polyreactivity
6,QVQLVESGGGLVQAGGSLRLSCAASGRTLRIYAMGWYRPAPGNERELVAAITGSGGSTDYADSVKGRFTISRDNAKNTVYLQMNILKPEDTAVYYCNAGKTIDYRDGVGYDHWGQGTQVTVSS,low polyreactivity
7,QVQLVESGGGLVQAGGRLRLSCAASGSTFYLNAMGWYRQAPGQERELVAAINGGGSTNYADSVKGRFTISRDNAKNTVYLQRNSLKPEDTAVYYCAAETSYANRDRFDYWGQGTQVTVSS,low polyreactivity
8,QVQLVESGGGLVQAGGSLRLSCAASGIIFVSYMGWYRQAPGKERELVAAIRWSGGRTYYADAVKGRFTISRDNAKNTVYLQMNSLKPEDTAVYYCNKRVYYSRDVTSRVGRYDFWGQGTQVTVSS,high polyreactivity
9,QVQLVESGGGLVQAGGSLRLSCAASGSIFASYAMGWYRQAPGKERELVAAISRRAVRTYYADSVKGRFTISRDNAKNTVYLQMNSLKPEDTAVYYCNATRGQYVGRYYYWGQGTQVTVSS,high polyreactivity
10,QVQLVESGGGIVQAGGSLRLSCAASGSIFDSNAMGWYRQAPGKERELVAAITGSGTSTYYADSVKGRFTISRDNAKNTVYLQMNSLKPEDTAVYYCAAAPEYLTDHDYWGQGTQVTVSS,low polyreactivity
11,QVQLVESGGGLVQAGGSLRLSCAASGFIFTFYAMGWYRQEPGKEREFVASIDWGDGSTYYADSVKGRFTISRDNAKNTVYLQMNSLKPEDTAVYYCAHDYDGYVWDTEYDYWGQGTQVTVSS,low polyreactivity
12,QVQLVESGGGLVQAGCSLRLSCAASGFTFIQYAMGWYRPAPGKERELVAAITRSGGRTYYADSVKGRFTISRDNAKNTVYLQMNSLKPEDTAVYYCNAVSRIYPGDEFGYWGQGTQVTVSS,high polyreactivity
13,QVQLVESGGGLVQAGGSLRLSCAASGLTFVKNAMGWYRQAPGKERELVATISSGGSTNYADSVKGRFTISRDNAKNTVYLQMNSLKPEDTAVYYCNKDYTGVLLWIWWDRYDYWGQATQVTVSS,high polyreactivity
14,QVQLVESGGGLVQAGGSLRLSCAASGFTFNFYAMRWYRQAPGKERELVAAITASGVRRYYADSVKGRFTISRDNAKNTVYLQMNSLKPEDTAVYYCNTYMYRNKSGYDYWGQGTQVTVSS,high polyreactivity
15,QVQLVESGGGLVQAGGSLRLSCAASGSTFTYYAMGWYRQAPGKERELVASISGSGSRTYYADSVKGRFTISRDTAKNTVYLQMNSLTPEDTAVYSCAARFYVRWYYYGSYANYWGQGTQVTVSS,high polyreactivity
16,QVQLVESGGGLVQAGGSLRLSCAASGSTFLTNTMGWYRQAPGKERELVAIISRSSGTTYYSDSVKGRFTISRDNAKNTVYLQMNSLKPEDTAVYYCAKRYRRASPYSKNVYWGQGTQVTVSS,high polyreactivity
17,QVQLVESGGGLVQAGGRLRLSCAASGRTIGVYAMGWYRQAPGKERELVAAISWSGGTTYYADSVKGRFTISRDNAKNTVYLQMNSLKPEDTGVYYCAADGEYPHSEDFEYWGQGTQVTVSS,low polyreactivity
18,QVQLVESGGGLVQAGGSLRLSCAASGNIFRYYAMGWYRQAPGKERELVARISTGSSTYYADSVKGRFTISRDNAKNTVYLQMNSLKPEDTAVYYCAAANYRYRVPWFYYWGQGTQVTVSS,high polyreactivity
19,QVQLVESGGGLVQAGGSLRLSCAASGYTFVRYAMGWYRQAPGKERELVAAISRSGGSTYYADSVKGRFTISRDNAKNTVYLQMNSLKPEDTAVYYCNAYPYSYYDYDYWGQGTQVTVSS,high polyreactivity
20,QVQLVESGGGLVQAGGSLRVSCAASGFTFPYSAMGWYRQAPGKERELVAAIDWTGGSTYYADSVKGRFTISRDNPKNTVNLQINSLIPDDTAVYYCARDVDYYISSPTPPVVELDYWGQGTQVTVSS,low polyreactivity
21,QVQLVESGGGLVPAGGSLRLSCAASGFIFVTNGMGWYRQAPGKERELVAAITDNGGSTYYADSGKGRFTISRDNAKNTVYLQMNSLKPEDTAVYYCNADRVVGPYDGYDYWGQGTQVTVSS,low polyreactivity
22,QVQLVESRGGLVQAGGILRLSCAACGSTFPKYAMGWYRQAPGKERELVAAITGISGRTYYADSLKGRFTISRDNAKNTVYLQMNSLKPEDTAVYYCNARIFAGWSIYNYWGQGTQVTVSS,high polyreactivity

row,Sequence,polyreactivity (PSR sort gate)
1,QVQLVESGGGLVQAGGSLRLSCAASGSTFWWYAMGWYRQAPGKDRELVAASSYSGSSTYYADSVKGRFTISRDNAKNTVYLQMNSLKPEDTAVYYCAADIQYYYNYYPGDYWGQGTQVTVSS,low polyreactivity
2,QVQLVESRGCLVQAGGSLRLSCAASGFIFAYYAMGWYRQAPRKERELVGAISSGGTTNYADSVMGRFTSSRDNAKNTVYLQMNSLKPEDTAVYYCAAAWGYYSTTIYKYSFNYDFWGQGTQVTVSS,high polyreactivity
3,QVQLVESGGGLVQAGGSLRLSCAASGRTFEPNAMGWYRQAPGKEREFVAAISWDGGDTYYADSVKGRFTISRDNAKNTVYLQMNSLKPEDTAVYYCAKSTLYSVEYDYWGQGTQVTVSS,low polyreactivity
4,QVQLVETGGGLVQAGGSLRLSCAASGLIFYSYTMGWYRQAPGKERELVAVISRSGTSTYYADSVKGRFTISRDNAKNTVYLQMNSLKPEDTAVYYCAARAYVSHYGVSNFGYYYWGQGTQVTVSS,high polyreactivity
5,QVHLVQSGGGLVQAGGSLRLSCAASGRIFKFYAMGWYRQAPGKEMELVATISRGGSTYYADSVKGRFTISRDNAKNTVYLQMNSLKPEDTAVYYCAKQRERYYWFGAWSYDYWGQGTQVTVSS,low polyreactivity
6,QVQLVESGAGLVQAGASLRLICAASGRTFPDYAMGWYRQAPGTERELVAAIYSGGGTNYADSVKGRFTISRDNAKNTVYLQMNSLKQEDTAVYYCAATGVPGWVGFDYWGQGTQVTVSS,low polyreactivity
7,QVQLVESGGGLVQAGGSLRLSCAASGRIFGYYAMGWSRQAPGKERELVASIRRGTRTNYADSVKGRFTISRDNAKNTVYLQMNSLKPEDTAVYYCAATRFQFTTTPWYDYWGQGTHVTVSS,high polyreactivity
8,QVQLVESGGGLVQAGGSLRLSCAASGITIRRYAMGWYRQAPGKERELVAAITYSGGGSTYYADSVKGRFTISRDNAKNTVYLQMNSLKPEDTAVYYCAAGWYPWGYYSGYISYEYWGQGTQVTVSS,high polyreactivity
9,QVQLVESGGGLVQAGGSLRLSCAASGSIFSRYTMGWYRQAPGKERELVARINSSGTSTYYADSVKGRFTISRDNAKITVYLQMNSLKPEDTAVYYCARTSRHVRYDYWGQGTQVTVSS,low polyreactivity
10,QVQLVESGGGLVQAGGSLRLTSADTGFNFGSYAMGWSRQAHGKEREFVAAISSNGGNTYYADSVKGRFTISRDNAKNTVYLEINSLKPEDTAVSYCAARYPSGTRKWYGYWGQGTQVTVSS,high polyreactivity
11,QVQLVESGGGLVQAGGSLRLSCAASGIIFTYYAMGSYRQAPGKERELVAAISSRGDSTYYADSVKGRCTISRDNAKNTVSLQLNSLKTEDTAVYYCNRYLSRPLRAMYYWGIGTQVTVSS,high polyreactivity
12,QVQLVESGGGLVQAGGSLRLSCAASGRTFSYYAMGWYRQAPGKERELVAAIDDNGGTTYADSVKGRFTISRDNATNTVYLQINSLKPEDTAVYYCAKRVSYFWALRRGYWGQGTKVTVSS,high polyreactivity
13,QVQLVESGGGLVQAGGSLRLSCAASGIIFTGNAMGWYIQAPGKERELVAAITSGDTTNYADSVKGRFTISRDNAKNTVYLQMNSLKPEDTAVYYCAKELQVRQAGDYWGQGTQVTVSS,low polyreactivity
14,QVQLVESGGGLVQAGGSLRLSCAASGRTFSYYTMGRYRQAPGKERELVARISNRGTNTYYADSVKGRFTISRDHAKNSVNLQMNSLKTEDTAVFYCAKYYYTSIVGYDYWGQGTQVTVSS,low polyreactivity
15,QVQLVESGGGLVQAGGSLRLSCAASGITFYGNAMGWYRQAPGKERELVAAISSSGGTTYYADSVKGRFTISRDNAKNTVYLQMNSLIPEDTAVYYCNALHPVVYYGTYFNLRRYDYWGQGTQVTVSS,low polyreactivity
16,QVQLVESGGGLVQAGGSLRLSCAASGRIFPAYAMGWYRQSPGKERELVASIRRGGITYADSVKGRFTISRDNAKNTVSLQMTSLNPEDTAVYYCNAHYRGWGYHMDYWGQGTQVTGSS,low polyreactivity
17,QVQLVESGGGLVQAGGSLRLSCAASGSTVYQYVMGRYRQAPGKVREFVAAITFSGSRTYYADSVKGRFTISRDNAKNTVYLQMNSLKPEDTAVYYCAVHSTSPRGKRYEYWGQGTQVTVSS,high polyreactivity
18,QVQLVESGGGLVQAGGSLRLSCAASGRILVPYAMGWYRQAPGKERELVDAISSGGSTKYADSVKGRFTISRDNAKNTVYLQMNSLKPEDTAVYYCASRIGSGSYPYPRYDYWGQGTQVTVSS,high polyreactivity
19,QVQLVESGGGLVQAGGSLRLICAASGVIFTGYTMGWYREAPGKESELVAAISYRGGSTYYADSVKGRFTISRDNAKITVYFQMNRLKPEDTAVYYCNAVWSNFRLGYDHWGQGTQVTVSS,high polyreactivity
20,QVQLVETGGGLFQAGGSLRLSCAASGFIYSYAMGWYRQAPGKERELDAAISRSGGSTYYADSVKGRFTISRDNAKNTVYLQMNSLKPEDTAVYYCAARPNSNRYVRYGYWGQGTQVTVSS,high polyreactivity
21,QVQLVESGGGLVQAGGSLRLSCAASGRTFNYYGMGWYRQAPGKERELVAAINSGDNTYYADSVKGRFTISRDNAKNTVYLQMTSLKPEDTAVYYCNTDAFWYYYSWYDYWGQGTQVTVSS,low polyreactivity
